Laboratory results taken from patent KR20230117039A (dated 2023).
Each block holds one binder with its values, some of them ahead of it.

What was measured:
[1] = target: T1, N-terminally biotinylated hNinj1 (2-56) peptide (human, UniProt Q92982 2-56, N-terminal biotin); test: scFv clone ELISA screen
T1 construct: range 2-56; also called hNinj1 펩타이드
T1 sequence (peptide, looked up): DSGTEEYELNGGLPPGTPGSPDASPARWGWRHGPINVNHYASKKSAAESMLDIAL

[2] = target: T2, hNinj1 extracellular domain peptide with added C-terminal lysine, biotinylated (human); test: clone ELISA screen
T2 sequence (peptide, biotin on the added C-terminal lysine (K57)): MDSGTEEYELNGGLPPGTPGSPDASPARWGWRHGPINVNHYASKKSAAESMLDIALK

[3] = target: T3, NINJ1 peptide (analyte of the sandwich ELISA) (UniProt Q92982 1-56, limits assumed); test: sandwich ELISA, NINJ1 titrated
T3 construct: also called Ninj1 펩타이드; NINJ1 펩타이드
T3 sequence (peptide, looked up): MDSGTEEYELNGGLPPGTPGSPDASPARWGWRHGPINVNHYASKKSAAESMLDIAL

B2: C12, Fab clone of the rabbit immune library (Fab, V domains shown)
VH: QEQLKETGGGLVQPGGSLKLSCKASGIDFNTYTVSWVRQAPGKGLELIGYVDPVFDDTYYATWVNGRFTISSHNAQNTVYLQLNSLTAADTATYFCARLGAYDSSSGYPNFSLWGPGTLVTISS
VL: ELTQPPSLSASLDTTARLTCTLSTDYSVGEYPLVWLQQVPGRPPRYLLGYHTDDIKHQGPGVPSRFSGSKDHSTNTGVLTISGLQPEDEADYYCAVGVVFGGGTQLTVTG
- ELISA ratio hNinj1/control [2]: 5.09

B3: C12 anti-Ninj1 IgG antibody (antibody, V domains shown)
VH: B2 VH
VL: B2 VL
notes: Tested as IgG made in ExpiCHO; also called C12 IgG; 항 C12 Ninj1 항체
- EC50 [3]: ~0.03 µg/mL

B4: G2, Fab clone of the rabbit immune library (Example 1.3.3) (Fab, V domains shown)
VH: B2 VH
VL: B2 VL
- ELISA ratio hNinj1/control [2]: 10.6

Continued, values first:

- ELISA ratio hNinj1/control [1]: 5.12
B1: B3, scFv clone of the VH3VL1 synthetic human antibody library (scFv)
chain: EVQLLESGGGLVQPGGSLRLSCAASGFTFSDYDMSWVRQAPGKGLEWVSGISSDNGSTYYADSVKGRFTISRDNSKNTLYLQMNSLRAEDTAVYYCARAAITCNNEWCYYYDAMDVWGQGTLVTVSSGGGGSGGGGSGGGGSQSVLTQPPSASGTPGQRVTISCTGPSSNIGNNDVSWYQQLPGTAPKLLIYANSNRPSGVSDRFSGSKSGTSASLAISGLRSEDEADYYCGAWDDSLNGYVFGGGTKLTVLGQAGQHHHHHHGAYPYDVPDYAS

- ELISA ratio hNinj1/control [1]: 5.62
B5: E6, scFv clone of the VH3VL1 synthetic human antibody library (scFv)
chain: EVQLLESGGGLVQPGGSLRLSCAASGFTFSSYAIHWVRQAPGKGLEWVSAISGSGGSTYYADSVKGRFTISRNNSKNTLYLQVNSLRAEDTAVYYCARNPTYGGFDIWGQGTLVTVSSGGGGSGGGGSGGGGSQSVLTQPPSASGTPGQRVTISCSGSSSNIGSNYVYWYQQLPGTAPKLLIYRNNQRPSGVPDRFSGSKSGTSASLAISGLRSEDEADYYCGAWDDSLSSPVFGGGTKLTVLGQAGQHHHHHHGAYPYDVPDYAS

- ELISA ratio hNinj1/control [1]: 6.18
B6: C11, scFv clone of the VH3VL1 synthetic human antibody library (scFv)
chain: EVQLLESGGGLVQPGGSLRLSCAASGFTFSSYGISWVRQAPGKGLEWVSAISGSGGSTYYADSVKGRFTISRDNSKNTLYLQMNSLRAEDTAVYYCARTPIDADAFDYWGQGTLVTVSSGGGGSGGGGSGGGGSQSVLTQPPSASGTPGQRVTISCTGNIGNIASNYVQWYQQLPGTAPKLLIYDTYNKHRGVPDRFSGSKSGTSASLAISGLRSEDEADYYCGAWDDSLSGPVFGGGTKLTVLGQAGQHHHHHHGAYPYDVPDYAS
